Reference: patent publication US20220017591A1 (AstraZeneca / MedImmune, published 2022)
Read-outs that look alike come from different tables or passages of the source.

T1: human RXFP1 (human, UniProt Q9HBX9 1-757)
T1 sequence (looked up): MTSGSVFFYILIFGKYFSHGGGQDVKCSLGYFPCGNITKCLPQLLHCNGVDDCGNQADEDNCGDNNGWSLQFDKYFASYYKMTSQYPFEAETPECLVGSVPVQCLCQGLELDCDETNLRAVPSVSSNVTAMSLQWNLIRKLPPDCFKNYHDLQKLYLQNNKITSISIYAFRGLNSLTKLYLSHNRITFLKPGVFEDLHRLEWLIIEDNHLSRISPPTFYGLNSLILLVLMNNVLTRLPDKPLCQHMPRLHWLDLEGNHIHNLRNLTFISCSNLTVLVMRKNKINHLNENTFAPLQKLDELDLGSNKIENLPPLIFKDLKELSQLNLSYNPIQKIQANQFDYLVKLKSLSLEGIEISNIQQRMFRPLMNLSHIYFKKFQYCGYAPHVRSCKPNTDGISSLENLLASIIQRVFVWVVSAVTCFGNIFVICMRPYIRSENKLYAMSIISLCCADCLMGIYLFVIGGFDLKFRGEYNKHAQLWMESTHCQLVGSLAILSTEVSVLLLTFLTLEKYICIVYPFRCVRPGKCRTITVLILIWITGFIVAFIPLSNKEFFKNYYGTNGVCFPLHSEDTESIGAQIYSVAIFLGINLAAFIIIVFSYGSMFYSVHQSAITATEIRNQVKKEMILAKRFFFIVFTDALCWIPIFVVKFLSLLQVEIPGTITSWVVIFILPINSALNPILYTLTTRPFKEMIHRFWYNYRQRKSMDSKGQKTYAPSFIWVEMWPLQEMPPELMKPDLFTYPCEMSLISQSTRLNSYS

T2: mouse RXFP1 (mouse, UniProt Q6R6I7 1-758)
T2 sequence (looked up): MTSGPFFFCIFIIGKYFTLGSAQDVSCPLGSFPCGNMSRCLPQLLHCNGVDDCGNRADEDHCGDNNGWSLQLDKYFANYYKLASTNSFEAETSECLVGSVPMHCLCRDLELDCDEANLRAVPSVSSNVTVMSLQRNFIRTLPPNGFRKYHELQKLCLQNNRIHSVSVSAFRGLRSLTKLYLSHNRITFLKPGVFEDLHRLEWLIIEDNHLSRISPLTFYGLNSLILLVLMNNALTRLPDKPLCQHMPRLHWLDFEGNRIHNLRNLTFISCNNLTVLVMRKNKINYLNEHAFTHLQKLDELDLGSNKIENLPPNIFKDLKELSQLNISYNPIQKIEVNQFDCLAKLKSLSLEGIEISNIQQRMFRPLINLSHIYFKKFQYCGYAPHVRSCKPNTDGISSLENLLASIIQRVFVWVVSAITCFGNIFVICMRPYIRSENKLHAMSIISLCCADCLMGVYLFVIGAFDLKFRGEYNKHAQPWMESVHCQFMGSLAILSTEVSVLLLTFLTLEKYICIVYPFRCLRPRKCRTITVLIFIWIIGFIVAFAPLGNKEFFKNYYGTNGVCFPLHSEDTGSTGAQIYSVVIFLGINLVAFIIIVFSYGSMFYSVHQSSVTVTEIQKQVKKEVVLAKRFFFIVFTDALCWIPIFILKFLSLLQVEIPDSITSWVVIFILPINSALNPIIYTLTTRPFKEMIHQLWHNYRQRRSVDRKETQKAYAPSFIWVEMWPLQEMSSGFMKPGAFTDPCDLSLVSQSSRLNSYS


Tests used:
Test in all cases: cell-based or functional assay
human RXFP1 [1] = target: T1, human RXFP1
human RXFP1 [2] = target: T1, human RXFP1; remark: listed apart in the source
mouse RXFP1 [3] = target: T2, mouse RXFP1
human RXFP2 [4] = target: T3, human RXFP2 (human, UniProt Q8WXD0 1-754)
T3 sequence (Q8WXD0 whole entry): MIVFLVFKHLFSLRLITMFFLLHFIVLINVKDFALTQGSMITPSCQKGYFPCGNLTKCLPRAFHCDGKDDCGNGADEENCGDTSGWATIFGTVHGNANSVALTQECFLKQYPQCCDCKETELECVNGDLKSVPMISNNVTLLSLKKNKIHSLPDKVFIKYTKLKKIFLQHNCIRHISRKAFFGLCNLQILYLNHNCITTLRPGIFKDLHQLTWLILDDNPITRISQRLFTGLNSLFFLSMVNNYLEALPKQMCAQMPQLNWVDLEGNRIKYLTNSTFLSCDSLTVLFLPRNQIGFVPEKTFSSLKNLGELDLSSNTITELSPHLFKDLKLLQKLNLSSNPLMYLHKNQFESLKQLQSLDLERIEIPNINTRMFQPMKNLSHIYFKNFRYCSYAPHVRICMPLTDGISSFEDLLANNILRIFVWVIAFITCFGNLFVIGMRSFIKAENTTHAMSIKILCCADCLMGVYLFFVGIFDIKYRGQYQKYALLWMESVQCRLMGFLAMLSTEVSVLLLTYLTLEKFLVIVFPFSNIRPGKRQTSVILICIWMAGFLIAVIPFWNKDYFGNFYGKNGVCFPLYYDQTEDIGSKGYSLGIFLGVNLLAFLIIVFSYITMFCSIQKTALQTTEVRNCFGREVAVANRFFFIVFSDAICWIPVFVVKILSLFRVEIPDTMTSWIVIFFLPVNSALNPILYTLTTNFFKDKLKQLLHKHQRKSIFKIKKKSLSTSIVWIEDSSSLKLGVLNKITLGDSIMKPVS

human RXFP1 [5] = target: T1, human RXFP1; remark: listed apart in the source
mouse RXFP1 [6] = target: T2, mouse RXFP1; remark: listed apart in the source
human RXFP2 [7] = target: T3, human RXFP2; remark: listed apart in the source
human RXFP1 [8] = target: T1, human RXFP1; remark: listed apart in the source
mouse RXFP1 [9] = target: T2, mouse RXFP1; remark: listed apart in the source
human RXFP2 [10] = target: T3, human RXFP2; remark: listed apart in the source

biological activity (EC50), cAMP assay (human RXFP1 [1])	EC50 hRXFP1 (M), cAMP assay (human RXFP1 [2])	EC50 mRXFP1 (M), cAMP assay (mouse RXFP1 [3])	EC50 hRXFP2 (M), cAMP assay (human RXFP2 [4])	EC50 hRXFP1 (M), cAMP assay (human RXFP1 [5])	EC50 mRXFP1 (M), cAMP assay (mouse RXFP1 [6])	EC50 hRXFP2 (M), cAMP assay (human RXFP2 [7])	EC50 hRXFP1 (M), cAMP assay (human RXFP1 [8])	EC50 mRXFP1 (M), cAMP assay (mouse RXFP1 [9])	EC50 hRXFP2 (M), cAMP assay (human RXFP2 [10])	Binder
~10 pM	1.06e-11 M	1.74e-11 M	1.61e-08 M							RELAX0117 (Fc fusion) chain 1: QLYSALANKCCHVGCTKRSLARFCAAAGGGGSGGGGSGGGGSGGGGSACPPCPAPEFEGGPSVFLFPPKPKDTLMISRTPEVTCVVVDVSHEDPEVKFNWYVDGVEVHNAKTKPREEQYNSTYRVVSVLTVLHQDWLNGKEYKCKVSNKALPASIEKTISKAKGQPREPQVYTLPPCREEMTKNQVSLWCLVKGFYPSDIAVEWESNGQPENNYKTTPPVLDSDGSFFLYSKLTVDKSRWQQGNVFSCSVMHEALHNHYTQKSLSLSPGGGGGSGGGGSGGGGSGGGGGSQLYSALANKCCHVGCTKRSLARFC chain 2: SWMEEVIKLCGRELVRAQIAICGMSTWSAAAGGGGSGGGGSGGGGSGGGGSACPPCPAPEFEGGPSVFLFPPKPKDTLMISRTPEVTCVVVDVSHEDPEVKFNWYVDGVEVHNAKTKPREEQYNSTYRVVSVLTVLHQDWLNGKEYKCKVSNKALPASIEKTISKAKGQPREPQVCTLPPSREEMTKNQVSLSCAVKGFYPSDIAVEWESNGQPENNYKTTPPVLDSDGSFFLVSKLTVDKSRWQQGNVFSCSVMHEALHNHYTQKSLSLSPGGGGGSGGGGSGGGGSGGGGGSSWMEEVIKLCGRELVRAQIAICGMSTWS
	5.88e-11 M	2.88e-11 M	> 1.09e-07 M							RELAX0091 (Fc fusion) chain 1: QLYSALANKCCHVGCTKRSLARFCAAAGGGGSGGGGSGGGGSGGGGSACPPCPAPEFEGGPSVFLFPPKPKDTLMISRTPEVTCVVVDVSHEDPEVKFNWYVDGVEVHNAKTKPREEQYNSTYRVVSVLTVLHQDWLNGKEYKCKVSNKALPASIEKTISKAKGQPREPQVYTLPPCREEMTKNQVSLWCLVKGFYPSDIAVEWESNGQPENNYKTTPPVLDSDGSFFLYSKLTVDKSRWQQGNVFSCSVMHEALHNHYTQKSLSLSPG chain 2: SWMEEVIKLCGRELVRAQIAICGMSTWSAAAGGGGSGGGGSGGGGSGGGGSACPPCPAPEFEGGPSVFLFPPKPKDTLMISRTPEVTCVVVDVSHEDPEVKFNWYVDGVEVHNAKTKPREEQYNSTYRVVSVLTVLHQDWLNGKEYKCKVSNKALPASIEKTISKAKGQPREPQVCTLPPSREEMTKNQVSLSCAVKGFYPSDIAVEWESNGQPENNYKTTPPVLDSDGSFFLVSKLTVDKSRWQQGNVFSCSVMHEALHNHYTQKSLSLSPG
	3.77e-11 M	3.27e-11 M	3.24e-08 M	3.32e-11 M	1.36e-11 M	4.2e-08 M				RELAX0023 (Fc fusion) chain 1: DKTHTCPPCPAPEFEGGPSVFLFPPKPKDTLMISRTPEVTCVVVDVSHEDPEVKFNWYVDGVEVHNAKTKPREEQYNSTYRVVSVLTVLHQDWLNGKEYKCKVSNKALPASIEKTISKAKGQPREPQVYTLPPCREEMTKNQVSLWCLVKGFYPSDIAVEWESNGQPENNYKTTPPVLDSDGSFFLYSKLTVDKSRWQQGNVFSCSVMHEALHNHYTQKSLSLSPGGGGGSGGGGSGGGGSGGGGGSQLYSALANKCCHVGCTKRSLARFC chain 2: DKTHTCPPCPAPEFEGGPSVFLFPPKPKDTLMISRTPEVTCVVVDVSHEDPEVKFNWYVDGVEVHNAKTKPREEQYNSTYRVVSVLTVLHQDWLNGKEYKCKVSNKALPASIEKTISKAKGQPREPQVCTLPPSREEMTKNQVSLSCAVKGFYPSDIAVEWESNGQPENNYKTTPPVLDSDGSFFLVSKLTVDKSRWQQGNVFSCSVMHEALHNHYTQKSLSLSPGGGGGSGGGGSGGGGSGGGGGSSWMEEVIKLCGRELVRAQIAICGMSTWS
~80 pM	8.27e-11 M	4.14e-11 M								RELAX0021 (Fc fusion) chain 1: GGAGGACPPCPAPEFEGGPSVFLFPPKPKDTLMISRTPEVTCVVVDVSHEDPEVKFNWYVDGVEVHNAKTKPREEQYNSTYRVVSVLTVLHQDWLNGKEYKCKVSNKALPASIEKTISKAKGQPREPQVYTLPPSREEMTKNQVSLWCLVKGFYPSDIAVEWESNGQPENNYKTTPPVLDSDGSFFLYSKLTVDKSRWQQGNVFSCSVMHEALHNHYTQKSLSLSPGGGGGSGGGGSGGGGSGGGGGSQLYSALANKCCHVGCTKRSLARFC chain 2: GGAGGACPPCPAPEFEGGPSVFLFPPKPKDTLMISRTPEVTCVVVDVSHEDPEVKFNWYVDGVEVHNAKTKPREEQYNSTYRVVSVLTVLHQDWLNGKEYKCKVSNKALPASIEKTISKAKGQPREPQVYTLPPSREEMTKNQVSLSCAVKGFYPSDIAVEWESNGQPENNYKTTPPVLDSDGSFFLVSKLTVDKSRWQQGNVFSCSVMHEALHNHYTQKSLSLSPGGGGGSGGGGSGGGGSGGGGGSSWMEEVIKLCGRELVRAQIAICGMSTWS

The next lines start with the binder.

Binder	biological activity (EC50), cAMP assay (human RXFP1 [1])	EC50 hRXFP1 (M), cAMP assay (human RXFP1 [2])	EC50 mRXFP1 (M), cAMP assay (mouse RXFP1 [3])	EC50 hRXFP2 (M), cAMP assay (human RXFP2 [4])	EC50 hRXFP1 (M), cAMP assay (human RXFP1 [5])	EC50 mRXFP1 (M), cAMP assay (mouse RXFP1 [6])	EC50 hRXFP2 (M), cAMP assay (human RXFP2 [7])	EC50 hRXFP1 (M), cAMP assay (human RXFP1 [8])	EC50 mRXFP1 (M), cAMP assay (mouse RXFP1 [9])	EC50 hRXFP2 (M), cAMP assay (human RXFP2 [10])
RELAX0013 (recombinant human Relaxin-2) (ligand) chain 1: DSWMEEVIKLCGRELVRAQIAICGMSTWS chain 2: QLYSALANKCCHVGCTKRSLARFC		1.15e-12 M	7.54e-13 M	1.75e-09 M	1.15e-12 M	7.54e-13 M	1.75e-09 M	1.15e-12 M	7.54e-13 M	1.75e-09 M
RELAX0019 (Fc fusion) chain 1: GGAGGACPPCPAPEFEGGPSVFLFPPKPKDTLMISRTPEVTCVVVDVSHEDPEVKFNWYVDGVEVHNAKTKPREEQYNSTYRVVSVLTVLHQDWLNGKEYKCKVSNKALPASIEKTISKAKGQPREPQVYTLPPCREEMTKNQVSLWCLVKGFYPSDIAVEWESNGQPENNYKTTPPVLDSDGSFFLYSKLTVDKSRWQQGNVFSCSVMHEALHNHYTQKSLSLSPGGGGGSGGGGSGGGGSGGGGGSQLYSALANKCCHVGCTKRSLARFC chain 2: GGAGGACPPCPAPEFEGGPSVFLFPPKPKDTLMISRTPEVTCVVVDVSHEDPEVKFNWYVDGVEVHNAKTKPREEQYNSTYRVVSVLTVLHQDWLNGKEYKCKVSNKALPASIEKTISKAKGQPREPQVCTLPPSREEMTKNQVSLSCAVKGFYPSDIAVEWESNGQPENNYKTTPPVLDSDGSFFLVSKLTVDKSRWQQGNVFSCSVMHEALHNHYTQKSLSLSPGGGGGSGGGGSGGGGSGGGGGSSWMEEVIKLCGRELVRAQIAICGMSTWS		3.57e-11 M	9.1e-12 M	3.42e-08 M	5.81e-11 M	2.24e-11 M	4.4e-08 M	5.81e-11 M	2.24e-11 M	4.4e-08 M
RELAX0014 (recombinant murine Relaxin-1) (ligand) chain 1: MRVSEEWMDGFIRMCGREYARELIKICGASVGR chain 2: ESGGLMSQQCCHVGCSRRSIAKLYC		4.47e-12 M	2.37e-12 M	1.78e-12 M	4.47e-12 M	2.37e-12 M	1.78e-12 M	4.47e-12 M	2.37e-12 M	1.78e-12 M
